US20210139598A1 (ROCKEFELLER UNIVERSITY, published 2021)

T1: human FcγRIIB, soluble ectodomain (human, UniProt P31994 43-217)
T1 construct: extracellular domain; Recombinant; also called hFcγRIIB; huFcγRIIB
T1 sequence (looked up): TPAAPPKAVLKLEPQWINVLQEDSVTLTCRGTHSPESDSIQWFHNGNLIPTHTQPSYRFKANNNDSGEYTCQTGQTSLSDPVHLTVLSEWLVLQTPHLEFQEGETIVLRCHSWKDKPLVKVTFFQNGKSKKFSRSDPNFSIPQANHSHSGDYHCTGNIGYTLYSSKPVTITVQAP

T2: human FcγRIIA R131 allele, soluble ectodomain (human, UniProt P12318 34-217)
T2 construct: extracellular domain; also called hFcγRIIA^R131; hFcγRIIA
T2 sequence (looked up): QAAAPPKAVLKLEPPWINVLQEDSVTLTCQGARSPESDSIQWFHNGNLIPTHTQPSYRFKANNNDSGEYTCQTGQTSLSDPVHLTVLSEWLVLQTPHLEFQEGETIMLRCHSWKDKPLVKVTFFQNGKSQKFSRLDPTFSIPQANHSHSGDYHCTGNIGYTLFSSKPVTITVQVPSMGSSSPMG

B1: 2141-IgG1 (anti-human CD40 Ab clone 21.4.1, wild type human IgG1) (antibody)
heavy: not shown
light: DIQMTQSPSSVSASVGDRVTITCRASQGIYSWLAWYQQKPGKAPNLLIYTASTLQSGVPSRFSGSGSGTDFTLTISSLQPEDFATYYCQQANIFPLTFGGGTKVEIKRTVAAPSVFIFPPSDEQLKSGTASVVCLLNNFYPREAKVQWKVDNALQSGNSQESVTEQDSKDSTYSLSSTLTLSKADYEKHKVYACEVTHQGLSSPVTKSFNRGEC
notes: Made in HEK293T cells; also called IgG1 wild type
B2: 2141-IgG2 (CP-870,893, human IgG2) (antibody)
heavy: not shown
light: B1 light
B3: 2141-IgG1 G237D/P238D/P271G/A330R (V9) (antibody)
heavy: not shown
light: B1 light
B4: 2141-IgG1 G237D/P238D/H268D/P271G/A330R (V11) (antibody)
heavy: not shown
light: B1 light
notes: also called 2141-V11
B5: 2141-IgG1 S267E (antibody)
heavy: not shown
light: B1 light
notes: also called SE
B6: 2141-IgG2 C232S (antibody)
heavy: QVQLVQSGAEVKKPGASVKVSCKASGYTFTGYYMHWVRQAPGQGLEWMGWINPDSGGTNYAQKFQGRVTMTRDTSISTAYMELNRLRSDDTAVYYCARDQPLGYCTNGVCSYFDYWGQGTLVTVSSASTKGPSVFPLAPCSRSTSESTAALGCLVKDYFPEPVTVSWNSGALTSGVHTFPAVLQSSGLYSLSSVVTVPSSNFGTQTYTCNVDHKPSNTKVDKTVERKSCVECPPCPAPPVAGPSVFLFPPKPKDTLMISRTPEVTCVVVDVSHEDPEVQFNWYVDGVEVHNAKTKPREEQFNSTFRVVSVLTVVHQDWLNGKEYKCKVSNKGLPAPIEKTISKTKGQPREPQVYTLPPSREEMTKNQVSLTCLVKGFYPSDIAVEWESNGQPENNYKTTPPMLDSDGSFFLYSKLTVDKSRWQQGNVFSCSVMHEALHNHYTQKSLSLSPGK
light: B1 light
notes: also called IgG2-C232S (IgG2A); IgG2-A
B7: 2141-IgG2 C127S (antibody)
heavy: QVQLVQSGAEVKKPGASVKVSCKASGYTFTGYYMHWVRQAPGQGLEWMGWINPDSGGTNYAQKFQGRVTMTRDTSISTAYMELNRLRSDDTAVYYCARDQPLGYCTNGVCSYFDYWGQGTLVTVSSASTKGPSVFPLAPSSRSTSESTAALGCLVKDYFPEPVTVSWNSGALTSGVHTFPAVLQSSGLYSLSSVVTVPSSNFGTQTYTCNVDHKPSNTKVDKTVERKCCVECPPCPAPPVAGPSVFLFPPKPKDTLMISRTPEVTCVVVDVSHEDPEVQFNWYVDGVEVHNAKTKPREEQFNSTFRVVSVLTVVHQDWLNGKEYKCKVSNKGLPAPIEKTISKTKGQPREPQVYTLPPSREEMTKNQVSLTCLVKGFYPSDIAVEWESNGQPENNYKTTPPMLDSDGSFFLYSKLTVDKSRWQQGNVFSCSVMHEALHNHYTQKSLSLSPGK
light: B1 light
notes: also called IgG2-B
B8: 2141-IgG1 S267E/L328F (antibody)
heavy: not shown
light: B1 light
notes: also called SELF
B9: 2141-IgG1 N297A (antibody)
heavy: not shown
light: B1 light
notes: also called N297A Fc-null

Assays:
[1] = biological target: T3, human CD40, soluble ectodomain / recombinant extracellular domain (human, UniProt P25942 21-193); test: SPR (Biacore T100), IgG immobilised, soluble CD40 injected
T3 construct: also called hCD40; huCD40
Method: (§1) All experiments were performed with a Biacore T100 surface plasmon resonance (SPR) system (Biacore, GE Healthcare), as previously described (Bournazos, et al., 2014, Cell 158, 1243-1253). Briefly, experiments were performed at 25_C in HBS-EP+ buffer (10 mM HEPES, pH 7.4; 150 mM NaCl; 3.4 mM EDTA; 0.005% (v/v) surfactant P20). […] Background binding to blank immobilized flow cells was subtracted and affinity constants were calculated using BIAcore T100 evaluation software (GE Healthcare) using the 1:1 Langmuir binding model.

[2] = biological target: T1, human FcγRIIB, soluble ectodomain; test: SPR (Biacore T100), 2141 Fc variant and soluble FcγR ectodomain
Method: as §1

[3] = biological target: T4, human FcγRI, soluble ectodomain (human, UniProt P12314 16-292); test: as above
T4 construct: extracellular domain; Recombinant; also called hFcγRI; huFcγRI
Method: as §1

[4] = biological target: T2, human FcγRIIA R131 allele, soluble …; test: as above
Method: as §1

[5] = biological target: T5, human FcγRIIIA F158 allele, soluble ectodomain (human, UniProt P08637 17-208); test: as above
T5 construct: extracellular domain; also called hFcγRIIIA^F158; huFcγRIIIA
Method: as §1

[6] = biological target: T1, human FcγRIIB, soluble ectodomain; test: fold change in hFcγRIIB binding affinity against wild type IgG1, from SPR
Method: as §1

[7] = biological target: T2, human FcγRIIA R131 allele, soluble …; test: ratio of the binding affinities to hFcγRIIA R131 and to hFcγRIIB, from SPR
Method: as §1

[8] = biological target: T2, human FcγRIIA R131 allele, soluble …; test: graded summary table of FcγR binding affinity profiles (SPR, see Table 4); the sheet prints no allele, R131 taken from Table 4
Method: as §1

T3 sequence (P25942 21-193): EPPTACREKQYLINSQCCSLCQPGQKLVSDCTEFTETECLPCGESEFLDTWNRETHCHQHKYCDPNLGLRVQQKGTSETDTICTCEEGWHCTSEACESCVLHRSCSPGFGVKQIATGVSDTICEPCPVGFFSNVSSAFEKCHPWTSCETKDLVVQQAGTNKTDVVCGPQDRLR
T4 sequence (P12314 16-292): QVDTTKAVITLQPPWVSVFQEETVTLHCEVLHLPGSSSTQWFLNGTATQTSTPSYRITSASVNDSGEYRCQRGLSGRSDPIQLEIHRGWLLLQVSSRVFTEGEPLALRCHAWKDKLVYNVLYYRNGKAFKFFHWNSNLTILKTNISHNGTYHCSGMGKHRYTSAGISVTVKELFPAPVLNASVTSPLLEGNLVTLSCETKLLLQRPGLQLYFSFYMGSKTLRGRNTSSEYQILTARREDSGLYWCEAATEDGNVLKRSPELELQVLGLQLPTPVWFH
T5 sequence (P08637 17-208): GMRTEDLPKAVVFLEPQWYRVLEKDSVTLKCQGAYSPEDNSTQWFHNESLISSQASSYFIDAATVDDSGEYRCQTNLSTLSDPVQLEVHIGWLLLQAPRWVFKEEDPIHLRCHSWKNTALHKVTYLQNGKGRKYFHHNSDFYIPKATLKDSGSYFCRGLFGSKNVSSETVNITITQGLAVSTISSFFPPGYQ

| Binder | Kd [1] | koff [1] | kon [1] | further results |
| --- | --- | --- | --- | --- |
| B1 | 19.9 nM | 0.00119 s⁻¹ | 59700 M⁻¹ s⁻¹ | Fold (KD(IgG1)/KD(Fc variant)) [2]: 1 fold; Fold (KD(IgG1)/KD(Fc variant)) [3]: 1 fold; Fold (KD(IgG1)/KD(Fc variant)) [4]: 1 fold; Fold (KD(IgG1)/KD(Fc variant)) [5]: 1 fold; FcγRIIB -fold [6]: 1 fold; IIA/IIB [7]: 2.7 |
| B2 | 31 nM | 0.00108 s⁻¹ | 34900 M⁻¹ s⁻¹ | Kd [4]: < 10000 nM; Kd [5]: < 10 µM |
| B3 | 26.8 nM | 0.00113 s⁻¹ | 42200 M⁻¹ s⁻¹ | Kd [3]: 578 nM |
| B4 | 27.4 nM | 0.00112 s⁻¹ | 41000 M⁻¹ s⁻¹ | – |
| B5 | 23.1 nM | 0.00115 s⁻¹ | 50000 M⁻¹ s⁻¹ | – |
| B6 | 30.9 nM | 0.00109 s⁻¹ | 35200 M⁻¹ s⁻¹ | – |
| B7 | 30.9 nM | 0.0011 s⁻¹ | 35500 M⁻¹ s⁻¹ | – |
| B8 | 27.4 nM | 0.00116 s⁻¹ | 42300 M⁻¹ s⁻¹ | Kd [4]: 17.7 nM |
| B9 | 22.2 nM | 0.00116 s⁻¹ | 52300 M⁻¹ s⁻¹ | binding result [8]: no binding |
